Measured values from patent US20240410900A1.

Tests used:
[1] = target: non-targeted IgG-IL2 (interleukin-2 fused to the C-terminus of a heavy chain of a germline antibody, which is not binding to a target); experiment: bridging ELISA, drug-Bi and drug-Dig, human pooled serum, binder 0.24 ng/mL assay / 4.9 ng/mL matrix
[2] = target: targeted IgG-IL2 (interleukin-2 fused to the C-terminus of a heavy chain of an antibody specifically binding to a therapeutic target); experiment: as above
[3] = target: non-targeted IgG-IL2 (interleukin-2 fused to the C-terminus of a heavy chain of a germline antibody, which is not binding to a target); experiment: bridging ELISA, drug-Bi and drug-Dig, human pooled serum, binder 250 ng/mL assay / 5000 ng/mL matrix
[4] = target: targeted IgG-IL2 (interleukin-2 fused to the C-terminus of a heavy chain of an antibody specifically binding to a therapeutic target); experiment: as above
[5] = target: TCB (T-cell bispecific format) drug antibody; experiment: as above
[6] = target: non-targeted IgG-IL2 (interleukin-2 fused to the C-terminus of a heavy chain of a germline antibody, which is not binding to a target); experiment: bridging ELISA, drug-Bi and drug-Dig, human pooled serum, binder 2.0 ng/mL assay / 39 ng/mL matrix
[7] = target: targeted IgG-IL2 (interleukin-2 fused to the C-terminus of a heavy chain of an antibody specifically binding to a therapeutic target); experiment: as above
[8] = target: TCB (T-cell bispecific format) drug antibody; experiment: as above
[9] = target: non-targeted IgG-IL2 (interleukin-2 fused to the C-terminus of a heavy chain of a germline antibody, which is not binding to a target); experiment: bridging ELISA, drug-Bi and drug-Dig, human pooled serum, binder 3.9 ng/mL assay / 78 ng/mL matrix
[10] = target: targeted IgG-IL2 (interleukin-2 fused to the C-terminus of a heavy chain of an antibody specifically binding to a therapeutic target); experiment: as above
[11] = target: TCB (T-cell bispecific format) drug antibody; experiment: as above
[12] = target: non-targeted IgG-IL2 (interleukin-2 fused to the C-terminus of a heavy chain of a germline antibody, which is not binding to a target); experiment: bridging ELISA, drug-Bi and drug-Dig, human pooled serum, binder 7.8 ng/mL assay / 156 ng/mL matrix
[13] = target: targeted IgG-IL2 (interleukin-2 fused to the C-terminus of a heavy chain of an antibody specifically binding to a therapeutic target); experiment: as above
[14] = target: TCB (T-cell bispecific format) drug antibody; experiment: as above

B1: multivalent anti-PG antibody derived from clone 1.7.24 (mixed Pool 2, 3, 4) (antibody, V domains shown)
VH: EVKLLESGGGLVQPGGSLKLSCAASGFDFSRYWMNWVRQAPGKGLEWIGEITPDSSTINYTPSLKDKFIISRDNAKNTLYLQMIKVRSEDTALYYCVRPYDYGAWFASWGQGTLVTVSA
VL: QAVVTQESALTTSPGETVTLTCRSSTGAVTTSNYANWVQEKPDHLFTGLIGGTNKRAPGVPARFSGSLIGDKAALTITGAQTEDEAIYFCALWYSNHWVFGGGTKLTVL
modifications: lysine amines derivatised with SATP or MHS and cross-linked (sites not given)
[1]
  signal [AU]: 0.045 AU
[2]
  signal [AU]: 0.055 AU
[3]
  signal [AU]: 2.17 AU
[4]
  signal [AU]: 2.99 AU
[5]
  signal [AU]: 2.99 AU
[6]
  signal [AU]: 0.0615 AU
[7]
  signal [AU]: 0.148 AU
[8]
  signal [AU]: 0.195 AU
[9]
  signal [AU]: 0.088 AU
[10]
  signal [AU]: 0.261 AU
[11]
  signal [AU]: 0.35 AU
[12]
  signal [AU]: 0.137 AU
[13]
  signal [AU]: 0.475 AU
[14]
  signal [AU]: 0.654 AU
